This note sets out measurements from patent US20200087400A1 (EUREKA THERAPEUTICS, published 2020).

Assay [1] concerns the target T1, HLA-A*02:01 on T2 cells with no peptide loaded (human).
T1 construct: TAP-deficient T2 cells, no peptide loaded from outside; also called T2 cells without peptide loading
Nature of the assay: flow cytometry, phage on T2 cells, anti-M13 + R-PE anti-mouse IgG. The method in brief: (§1)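 T2 cells + peptide + β2M → purified scFv phage → mouse anti-M13 mAb → R-PE anti-mouse IgG; each step 30-60 min on ice, two washes between. ELISA: phage clones on coated plate, HRP anti-M13, A450.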
(In general: A flow cytometer gives signals particle by particle.)

Assay [2] addresses T2, PSA 146-154 peptide/HLA-A*02:01 complex on the cell surface (human).
T2 construct: also called PSA146/HLA-A*02:01; PSA146-loaded T2 cells
Described as above. The method in brief: as §1

Assay [3] has as its target T3, control peptide A2E-13/HLA-A*02:01 complex on T2 cells (member of the P19 mixture) (human).
T3 construct: Loaded on T2 cells as part of the mixture of 19 control peptides
Nature of the assay: flow cytometry, phage on T2 cells. The method in brief: as §1

Assay [4] addresses T4, control peptide A2E-21/HLA-A*02:01 complex on T2 cells (member of the P19 mixture) (human).
T4 construct: Loaded on T2 cells as part of the mixture of 19 control peptides
Nature of the assay: flow cytometry, phage on T2 cells. The method in brief: as §1

Assay [5] has as its target T5, control peptide A2E-1/HLA-A*02:01 complex on T2 cells (member of the P19 mixture) (human).
T5 construct: Loaded on T2 cells as part of the mixture of 19 control peptides
Nature of the assay: flow cytometry, phage on T2 cells. The method in brief: as §1

The target of assay [6] is T6, control peptide A2E-5/HLA-A*02:01 complex on T2 cells (member of the P19 mixture) (human).
T6 construct: Loaded on T2 cells as part of the mixture of 19 control peptides
Nature of the assay: flow cytometry, phage on T2 cells. The method in brief: as §1

For assay [7], the target named is T7, control peptide A2E-15/HLA-A*02:01 complex on T2 cells (member of the P19 mixture) (human).
T7 construct: Loaded on T2 cells as part of the mixture of 19 control peptides
Nature of the assay: flow cytometry, phage on T2 cells. The method in brief:
as §1

In assay [8] the target is T8, control peptide A2E-8/HLA-A*02:01 complex on T2 cells (member of the P19 mixture) (human).
T8 construct: Loaded on T2 cells as part of the mixture of 19 control peptides
Nature of the assay: flow cytometry, phage on T2 cells. The method in brief:
as §1

In assay [9] the target is T9, control peptide A2E-2/HLA-A*02:01 complex on T2 cells (member of the P19 mixture) (human).
T9 construct: Loaded on T2 cells as part of the mixture of 19 control peptides
Nature of the assay: flow cytometry, phage on T2 cells. The method in brief:
as §1

Assay [10] deals with T10, control peptide A2E-17/HLA-A*02:01 complex on T2 cells (member of the P19 mixture) (human).
T10 construct: Loaded on T2 cells as part of the mixture of 19 control peptides
Nature of the assay: flow cytometry, phage on T2 cells. The method in brief:
as §1

Assay [11] has as its target T11, control peptide A2E-6/HLA-A*02:01 complex on T2 cells (member of the P19 mixture) (human).
T11 construct: Loaded on T2 cells as part of the mixture of 19 control peptides
Nature of the assay: flow cytometry, phage on T2 cells. The method in brief:
as §1

For assay [12], the target named is T12, control peptide A2E-19/HLA-A*02:01 complex on T2 cells (member of the P19 mixture) (human).
T12 construct: Loaded on T2 cells as part of the mixture of 19 control peptides
Nature of the assay: flow cytometry, phage on T2 cells. The method in brief: as §1

The target in assay [13] is T13, control peptide A2E-9/HLA-A*02:01 complex on T2 cells (member of the P19 mixture) (human).
T13 construct: Loaded on T2 cells as part of the mixture of 19 control peptides
Nature of the assay: flow cytometry, phage on T2 cells. The method in brief: as §1

The target in assay [14] is T14, control peptide A2E-3/HLA-A*02:01 complex on T2 cells (member of the P19 mixture) (human).
T14 construct: Loaded on T2 cells as part of the mixture of 19 control peptides
Nature of the assay: flow cytometry, phage on T2 cells. The method in brief:
as §1

Assay [15] concerns the target T15, control peptide A2E-16/HLA-A*02:01 complex on T2 cells (member of the P19 mixture) (human).
T15 construct: Loaded on T2 cells as part of the mixture of 19 control peptides
Nature of the assay: flow cytometry, phage on T2 cells. The method in brief: as §1

Assay [16] concerns the target T16, control peptide A2E-14/HLA-A*02:01 complex on T2 cells (member of the P19 mixture) (human).
T16 construct: Loaded on T2 cells as part of the mixture of 19 control peptides
Nature of the assay: flow cytometry, phage on T2 cells. The method in brief: as §1

For assay [17], the target named is T17, control peptide A2E-4/HLA-A*02:01 complex on T2 cells (member of the P19 mixture) (human).
T17 construct: Loaded on T2 cells as part of the mixture of 19 control peptides
Nature of the assay: flow cytometry, phage on T2 cells. The method in brief: as §1

The target in assay [18] is T18, control peptide A2E-7/HLA-A*02:01 complex on T2 cells (member of the P19 mixture) (human).
T18 construct: Loaded on T2 cells as part of the mixture of 19 control peptides
Nature of the assay: flow cytometry, phage on T2 cells. The method in brief: as §1

Assay [19] has as its target T19, control peptide A2E-23/HLA-A*02:01 complex on T2 cells (member of the P19 mixture) (human).
T19 construct: Loaded on T2 cells as part of the mixture of 19 control peptides
Nature of the assay: flow cytometry, phage on T2 cells. The method in brief:
as §1

Assay [20] deals with T20, control peptide A2E-11/HLA-A*02:01 complex on T2 cells (member of the P19 mixture) (human).
T20 construct: Loaded on T2 cells as part of the mixture of 19 control peptides
Nature of the assay: flow cytometry, phage on T2 cells. The method in brief:
as §1

Assay [21] deals with T21, control peptide A2E-10/HLA-A*02:01 complex on T2 cells (member of the P19 mixture) (human).
T21 construct: Loaded on T2 cells as part of the mixture of 19 control peptides
Nature of the assay: flow cytometry, phage on T2 cells. The method in brief:
as §1

For a further assay, the target named is T22, Bio-P19 member A2E-9 (chain 2 (heavy): C-terminal BirA substrate peptide, biotinylated there by BirA; tag letters not given, left out).
T22 construct: also called biotinylated control peptide A2E-9/HLA-A*02:01 monomer; not shown: BirA substrate peptide (BSP) tag at the C-terminus of the heavy chain
Nature of the assay: phage ELISA, streptavidin plate, anti-M13-HRP. The method in brief:
(§2)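 Phage ELISA: individual scFv phage clones from panning pools enriched against PSA146/HLA-A*02:01 were incubated in coated streptavidin plates; binding was detected with HRP anti-M13 and HRP substrate, read at 450 nm. For flow cytometry, T2 cells loaded with peptide and β2M were stained with purified phage clones.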
(In general: In an ELISA, binding on a coated surface is turned into a signal by an enzyme label.)

For a further assay, the target named is T23, Bio-P19 member A2E-4 (chain 2 carries a C-terminal BirA substrate peptide (BSP), enzymatically biotinylated; the BSP letters are not given in the patent and are left out).
T23 construct: also called biotinylated control peptide A2E-4/HLA-A*02:01 monomer
Nature of the assay: phage ELISA, streptavidin plate, anti-M13-HRP. The method in brief: as §2

The target in the next assay is T24, Bio-P19 member A2E-19 (chain 2 carries a C-terminal BirA substrate peptide (BSP), enzymatically biotinylated; the BSP letters are not given in the patent and are left out).
T24 construct: also called biotinylated control peptide A2E-19/HLA-A*02:01 monomer
Nature of the assay: phage ELISA, streptavidin plate, anti-M13-HRP. The method in brief: as §2

B1: PSA146/HLA-A*02:01-specific scFv phage clone #17 (scFv, V domains shown)
VH: QMQLVQSGAEVKKPGESLKISCKGSGYSFTSYWIGWVRQMPGKGLEWMGIIYPGDSDTRYSPSFQGQVTISADKSISTAYLQWSSLKASDTAMYYCARLVVPDAFDIWGQGTMVTVSS
VL: QSVVTQPPSVSAAPGQKVTISCSGSSSNIGNNYVSWYQQLPGTAPKLLIYDNYKRPSGIPDRFSGSKSGTSATLGITGLQTGDEADYYCGTWDSSLSAGVFGGGTKLTVLG
Turning to B1, the binding result in [1] is listed as “no binding”; in assay [2], “binds”; in assay [3], “no binding”; in assay [4] it was “no binding”; in assay [5], “no binding”; in assay [6] it was “no binding”. The binding result in assay [7], in [8], in assay [9], in assay [10], in [11] and in assay [12] was “no binding” each time. Also, the binding result in assay [13], in assay [14], in assay [15], in assay [16], in assay [17] and in [18] was “no binding” in each case. In addition, the binding result (in assay [19]; in assay [20]; in [21]; with Bio-P19 member A2E-9; with Bio-P19 member A2E-4; in the assay with Bio-P19 member A2E-19) was “no binding” each time.

B2: PSA146/HLA-A*02:01-specific scFv phage clone #18 (scFv, V domains shown)
VH: QVQLVQSGAEVKKPGESLKISCKGSGYSFTSYWIGWVRQMPGKGLEWMGIIYPGDSDTRYSPSFQGQVTISADKSISTAYLQWSSLKASDTAMYYCARWGSRGFLDAFDIWGQGTMVTVSS
VL: QSVVTQPPSVSAAPGQRVTISCSGSSSNIGNNYVSWYQQLPGAAPRLLIYDNDKRPSGIPDRFSGSKSGTSATLGITGLQTGDEADYYCGTWDSSLSSGVFGGGTKLTVLG
With B2, the binding result is “no binding” in [1]; “binds” in assay [2]; “no binding” in assay [3]; “no binding” in assay [4]; “no binding” in assay [5]; “no binding” in assay [6]. Further, the binding result in [7], in assay [8], in assay [9], in assay [10], in [11] and in [12] was “no binding” each time. For the same molecule, the binding result in [13], in assay [14], in assay [15], in assay [16], in assay [17] and in assay [18] was “no binding” each time. Also, the binding result (in assay [19]; in assay [20]; in [21]; in the assay with Bio-P19 member A2E-9; with Bio-P19 member A2E-4; with Bio-P19 member A2E-19) was “no binding” throughout.

B3: PSA146/HLA-A*02:01-specific scFv phage clone #15 (scFv, V domains shown)
VH: QVQLVQSGAEVKKPGSSVKVSCKASGGTFSSYAISWVRQAPGQGLEWMGRIIPILGIANYAQKFQGRVTITADKSTSTAYMELSSLRSEDTAVYYCARVSQPVYGSSTYDIWGQGTLVTVSS
VL: QAVLTQPPSASGTPGQRVTISCSGRSSNLGSNSVNWYQQVPGTAPKLLIFDNHQRPSGVPDRFSGSKSGTSASLAISGLRSEDETDYYCAAWDDSLNSVVFGGGTKLTVLG
As to B3, the binding result in assay [1] is listed as “no binding”; in assay [2], “binds”; in assay [3], “no binding”; in assay [4], “no binding”; in [5], “no binding”; in assay [6], “no binding”. Moreover, the binding result in [7], in assay [8], in assay [9], in [10], in [11] and in [12] was “no binding” each time. The binding result in assay [13], in [14], in [15], in assay [16], in [17] and in assay [18] was “no binding” in each case. Moreover, the binding result (in assay [19]; in assay [20]; in [21]; with Bio-P19 member A2E-9; with Bio-P19 member A2E-4; in the assay with Bio-P19 member A2E-19) was “no binding” each time.
